Measured values as given in paper PMC3904923 (2014).

How the values were obtained:
[1] = target: T1, dansylated calmodulin (rat, UniProt P0DP30 1-149, dansyl group covalently bound to CaM (position not given)); assay: absence of Ca2+
[2] = target: T1, dansylated calmodulin; assay: 3.9 uM Ca2+ (poor 1:1 fit, Bmax constrained)

B1: Kv7.2 CaM binding domain (residues 310–548), Q2AB WT (domain or fragment)
chain: not shown
Question: Which results are given for B1?
Answer: Kd [1]: 4.8 nM; Kd [2]: 21.4 nM
